In publication PMC2867299 (The Journal of Cell Biology, 2010):

Target: T1, GST-Myo4p-L-GT (Myo4p linker and globular tail, from residue 1042) (S. cerevisiae, UniProt P32492 1042-1471)
T1 sequence: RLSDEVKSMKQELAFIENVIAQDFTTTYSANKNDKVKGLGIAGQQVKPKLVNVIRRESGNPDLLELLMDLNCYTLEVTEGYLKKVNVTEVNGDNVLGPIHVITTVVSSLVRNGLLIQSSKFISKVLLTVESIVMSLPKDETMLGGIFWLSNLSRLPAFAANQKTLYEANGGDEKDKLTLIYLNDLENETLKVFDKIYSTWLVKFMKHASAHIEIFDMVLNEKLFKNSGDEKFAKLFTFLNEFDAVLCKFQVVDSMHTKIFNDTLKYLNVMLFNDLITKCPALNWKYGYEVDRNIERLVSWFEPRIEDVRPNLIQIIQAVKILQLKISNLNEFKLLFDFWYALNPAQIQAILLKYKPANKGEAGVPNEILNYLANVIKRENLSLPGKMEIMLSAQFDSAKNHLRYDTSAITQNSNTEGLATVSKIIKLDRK
Test: pull-down

B1: His-She3p-N (N-terminal half of She3p, aa 1-234) (domain or fragment)
chain: MSDQDNTQTSSSKLAPHHNIFMANLESSPTKDRNTSSQNASSSRVIESLHDQIDMLTKTNLQLTTQSQNLLSKLELAQSKESKLLENLNLLKNENENLNSIFERKNKKLKELEKDYSELSNRYNEQKEKMDQLSKLAKNSSAIEQSCSEKLQNMEVNYNSLLESQNLYRDHYSDEISKLNEKIGLLELELSNQNLNYGSDTSSNSDIELNLNKFNDSVKDLKSLETEKDSKLSK
B1: binds.
